Data from the DeepSol protein solubility set.

Experiment: soluble on expression in E. coli; label from the status in PepcDB or PDB records

Question: With “MSLTSKNQFYKPGMLVPVFSAAGLLKNGRYQFLLQQIETLSLLPTEQYAQLYEALVYRFVEFVQVLPIRLDEPLCSLMNEGLLRGVNSLNHYIQNHPEATPLERYALFSAGLLLEVAHAVVNQKIFITDEEGNFIKQWNPFSGPLIDDVETKHYKIMPLSSYYQRNIPSITPILVRQLLPDEGFLWLTSDMRVFSDWMQALRDDEGEGGGRFEHVLQLFKHKNIDGLFNTLPALPVNLQDSPATAHADAFLNWLKEALATNQIKVNTSDAGVHVIPEGVFLEKTGIFKQYIDLHVNVPVNLFTVYQQFGNLFGLTKLSGIDYRFEQLFSEYPDALKRKSKMGFAGLIGIRRASPTREGVLIADPNLIFTRGEIPSATSYLKLSSAQKSQNIPMTEGHHHHHH” as the sequence, how does the “soluble on expression in E. coli” value read?
Answer: Its value is “soluble”.

Question: Which “soluble on expression in E. coli” value does the source give for “MSLTSTIEELLTAARRRRVFSAAGWSVGTATTTLCRGLLGTTAWDPPATAVTEDSRWDLASMTKPIVAIAVMSLIEDGVLTLDDTIAEHLPDYADTDKARIRVANLLTHTSGIPGRQPLYQWNRARDELLTAIRRLPLLGPPGAQVSYSSPGFILLGLIAESAAGMPLDQLVAERVTRPAGMVDAGFASPPTELAVATEDDPWRGHLVRGEVHDENAVVLGAPAGHAGMFATLVDMEALGRTLCAQGWGAHGRVLTPAGYAAMITPRTDHLPLRRTLGWQGVDAVDATAGDLIGPDGYGHTGFTGTSLWIDPDRGSYVVLLTNRIHPNRENTAISRVRRAVNNIGFALASEGHHHHHH” here?
Answer: Its value is “soluble”.

Question: Which “soluble on expression in E. coli” value does the source give for “MSLTTENQNPLVLDKNEEISQQKADDIRLQLRQEPEVKRLAQQIDVKNQMELLEYGKEPAVEISKFSDRILGMMKTTSVTDSGTMLTQLGKIMDRFDKNDFDEPKGLMAKIFKRGGSMIEKIFKKYQTLGGEIEKIHVEISKYKDEMTKTNYTLDEMYENNIKYYMELEKYVVAGQMKLEEMQSILPSYEEKAASGNQLAQMQLDTLRNGIQALEERVYDLDMARMVALQTAPQIRLLQRGNAKLIGKINSAFIITIPIFKNGIIQAVTVKRQKLVADSMSELDRRTNEMLKRNAENISSQSVEIARMAGRPSIDIETIESSWNTIVSGMQETKQIEEENKRLREDGARRIAQLQDNIKKAALQQEGHHHHHH” here?
Answer: The value was “not soluble”.

Question: With “MSLTTIDPRSELVDGRRRAGARVDAVGAAALLSAAARVGVVCHVHPDADTIGAGLALALVLDGCGKRVEVSFAAPATLPESLRSLPGCHLLVRPEVMRRDVDLVVTVDIPSVDRLGALGDLTDSGRELLVIDHHASNDLFGTANFIDPSADSTTTMVAEILDAWGKPIDPRVAHCIYAGLATDTGSFRWASVRGYRLAARLVEIGVDNATVSRTLMDSHPFTWLPLLSRVLGSAQLVSEAVGGRGLVYVVVDNREWVAARSEEVESIVDIVRTTQQAEVAAVFKEVEPHRWSVSMRAKTVNLAAVASGFGGGGHRLAAGYTTTGSIDDAVASLRAALGEGHHHHHH” as the sequence, how does the “soluble on expression in E. coli” value read?
Answer: Its value is “soluble”.

Question: For “MSLTTITLRSAELFDVYLTFRQPMQTAISILSKRRTTILRLTDQEGRIGYGEGVAFETPWYTAETQDSLRALSPLLYRLLAAAPLSSPAAVAARFQPIKGNQMAKAMFDGAVHELFAQAEQTSLAAYLGGDENRSIPCGKALGRSSAEQTVEAVGQALNDGFERIKLKLAPTDTAVLEQVRKSFPGAPLMFDANGSFQVADLPLLQEWDTFSMLMMEQPFPADDWLSHQHAASLLKTPLCLDESIQTTQDALLMRTLQAGQIINIKPARLGGLTAALDVRSISPSYWLGGMFESGIGRRQTLAFATLPGLAYPIDMSGTDQYFIEDLLEQDYIVENGSIRYAEHSVSQERLERLAVSTKKLEGHHHHHH”, which “soluble on expression in E. coli” value is on record?
Answer: The value was “soluble”.

Question: For “MSLVDRNIGGSVTAPRIRVIEIDAFERDIRLRLPFRFGAATLEKAPQAFLRVRVEDEEGRTGLGATAEMMVPKWFDKNPAFTPAQNVDQLRTSIHTAAAASLEPSELATLFAAARLNEMETVRRLPGNPLAACFGPSLIARAALDAYCRLAGISFFEAVRGNLVGIGGPMLPGDIDADAASAMLAGLRPAGAISARHTIGLVDPITEGDIVDPVGDGLPESLEAVITRYGNRWFKIKLSGTIDADIDRLTRIAAVLDRLPDYRVTVDGNEQFGAPEQLAALLGQIEARPRLARLRAAIAFVEQPFSRAITMETPLGDLAAQLPFLIDESDDGDGAFAAARRLGYTGVSSKTCKGIYRSLMKAIRIRTGTAPGLFLSGEDLTCQAGLAVQQDLALVSLLGLSHVERNGHHYVAGMQGAPQAEKLRFAAAHPDLYEQGGDGPLLSIRDGRIAIASLGAVGYASGALPDFEAMTPMSEGHHHHHH”, which “soluble on expression in E. coli” value is on record?
Answer: Its value is “soluble”.

Question: For “MSLVFDTHLHTLFSTDSKMNIEEAIDAGEKKNLGIIITEHIDLNYPVKGEFVFDIDKYFKEYNKYRSNKVLLGVEIGMGEEIKEQNKSINDKYEFDYVLGSIHLLNGLDLYEKTIYKSSPKKEVFEMYFKTMLACLRCHEYIDSLAHIDYISRYAAYHDGEIYYNEYSDYIDEVLKFIVDREIVIEINTRRLNKKEVCENLMPIYKRYSELGGRFVTIGSDSHYKDSIGLNFKNALKMAENCNLKPVFFEKRLMKYAEGHHHHHH”, which “soluble on expression in E. coli” value is on record?
Answer: Its value is “soluble”.

Question: With “MSLVFYGRRLTEAIEVLKQSKISIMLANKGPLIYYRRTGGFPEGPVEKALGLSSLDDLVICPVHSVQPEVSTYLLLRLRTPFIIPPRSTATIYLKAPVAAGVYVTANGEQRLVDYFGPSVFKYALYGPPAVGQVCRFYITDIFSEVPEAGPWEAVTKVVVENTSDNYVEIRNVIYPIVYAQFYIDNMGNAYLETSKLSITSSNVGVVELRNEPPISGLPTCLKTEGGLPLPFLKPAGEKIAKFLMEFGLEGHHHHHH” as the sequence, how does the “soluble on expression in E. coli” value read?
Answer: The value was “not soluble”.

Question: Which “soluble on expression in E. coli” value does the source give for “MSLVIVMYSIKMRASKNGKHISGAERIVNKDEIEETVKELVRRALTHENGTPDFINIKIEEIKEEITYINHLPIKTIHCKDKEEARETAKKILRNEGIPDSVIDYAYEIIDKGGMRGAAILNLKGERLEPDKERGVRVKNIDTTKELKEKILKENLGTERTVDAIAIASKVIHLGVIAELCTSDNKSYTTGYVATKKGYFRITNLKKEGESGGRVFFVKDDVDIEDLINKLENKPEGHHHHHH” here?
Answer: The value was “soluble”.

Question: For “MSLVQNNESVFFVECDSYKESPSTSPIRLDDLDGNDAVSDQGLAFDGDVGITSQARVRNPRAQIFEDSNTDVVLHLDDLDMVPLNTKFDMQMEMGSPMAMPAETPPPVEPLKTKDLAYSSLAHLPSYFFEQTHFRIDRKCLLEMSKLRRNYLTISKQDALSCPQLHSRVAGGYLKPVKEKLFGIRHFLDLEESNTVNLLQDGNYMTELFNSQINIPTFKEFREDFEWCLKIIRDRSLSRFSEKRLQYLVNKFPVFQHLHSKEEMRQSKKVPHKDFYNCRKIDLNLLLSGCFSQWQLTEFIWTKLRKEPDRVIHQAFNGSHITLSQLFKVNFEETGQFFNGLKIIDDSFLEWYKVIYLAKYHLVNDEMEIHTGSHGKQLRYYLIAKTFLEFDNYINGEYLAELLKTFLIKPQEESKYQLCQLSVDFQFYLHYDNSDVDNWWMVFANWLNHYNIFSNNIRWNIRISRIYPELYHTGKVKNFQEYLNLIFKPLFNAENYLHKSLGPILLKFLSQVSSIDLCIQDTDNYIWKNFTAVSCLPKDWTSGGDNPTISQYMYYVYVNLTKLNHIRQALHQNTFTLRSSCSPTSMNRTSQFSNTLNFTEHTEAILNNFLLACGGFLNAENLWNAPPSLVYLFYLSQIPMVVAPLNSIVDSKPTMLQEQAPTGLVLEPSKPYKKNPFMKFFEMGFKISLSSESILYNNSYTKEPIIEEYSVAASIYRLHSADLCELLRNSVITSGFSSTLKNKWLGVSLASHDYFVENTGFVDKWYDCKPNTSLEHNVPIIRRQYRSSTLAGEWRLIIAEGHHHHHH”, which “soluble on expression in E. coli” value is on record?
Answer: Its value is “not soluble”.

Question: For “MSLVRGVLKRSKFRKMIRRAKVGDAKYIYELLTEFAKRGILLPRSLNSIYENIRDFWVYEKDGKVVGCVALHVMWEDLAEIRSLAVKEEYQKEGIGRELVIRALEDAWELGIKKVFSLTYVKEFFKKLGFKEIDKSVLPHKVWGECINCVKFPNCDEEAVLVELSEEYIKKLKEGEKISSLLPEGHHHHHH”, which “soluble on expression in E. coli” value is on record?
Answer: Its value is “soluble”.

Question: Which “soluble on expression in E. coli” value does the source give for “MSLVTSVSKLMFLGGSNKLICHNKETFVKILENPNQPLITVSNHRSNIDDPLMWCILKFREFWRYKDRNRYTLAAHNICFTKQFHTTMFSLGRCVPCVRGEGVYQKGMDFCVDMLNDNKWVHIFPEGKVCTLESEPLRFKWGIGRLVMDAKTDPVILPVWCKEMEKVWPTQPPYYPKFGNTVTVHIGEPFFLSDLKKTVLSKSLTTEQMRKIITDEVQTRMYQLGEKVGDLPKGSSLEILRKNPPIEY” here?
Answer: Its value is “not soluble”.
